Experimental data: patent US5574136

Target: human G-CSF receptor, class 2 (plasmid pHQ2), form lacking the transmembrane domain (human)
Experiment: saturation binding of murine 125I-G-CSF to COS cells transfected with pHQ2, Scatchard plot

## mouse recombinant G-CSF (granulocyte colony-stimulating factor) (from UniProt P09920) (ligand)
  Kd: 0.44 nM
  binding sites /cell: 6000 /cell
